Assay results as given in the nanobody polyreactivity screen of Harvey et al. (2022).

Test: yeast display, Sf9 membrane polyspecificity reagent, FACS + sequencing; frameworks hold sequencing errors
Method in brief: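 Using colony PCR, genes from sorted yeast display clones were amplified, then sequenced on MiSeq at 2 × 250 and filtered by CDR length. The clones had been stained with 10% biotinylated, detergent-solubilized Sf9 membrane reagent for 1 hour at 4 °C and sorted by FACS into low and high (top ~1%) gates on anti-HA and streptavidin fluorescence. Polyreactivity labels come from the gate of origin.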

| Sequence | polyreactivity (PSR sort gate) |
| --- | --- |
| QVQLVESGGGLVQAGGSLRLSCAASGSIFKTYAMGWNRQAPGKEREFVARITSSGGRTYYADSVKGRFTISRDNAKNTVYLQMNSLKPEDTAVYYCAKPYPRGYTTYSYDYWGQGTQVTVSS | high polyreactivity |
| QVQLVESGGGLVQAGGSLRLSCAASGRIFVYNVMGWYRQAPGKERELVAAISWGTGSTYADSVKGRFTISRDNAKNTVYLQMNSLKPEDTAVYYCAAPSPRSRAYTYRGDYWGQGTQVTVSS | low polyreactivity |
| QVQLVESGGGLVQAGGSLRLSCAASGRIFYSNTMGWYRQAPGKERELVAAISRSGGRTYYADSVKGRFTISRDNAKHTVYLQMNSLKPEDTAVYYCNTAYYRNPYYKGYYWGQGTQVTVSS | high polyreactivity |
| QVQLVESGGGLVQAGGSLRLSCAASGRIFYFNAMGWYRQAPGKEWELVAVINSSGSTDYADSVKGRFTISRDNAKNTVYLQMNSLKPEDTAVYYCAAEVTPSGYGYWGQGTQVTVSS | low polyreactivity |
| QVQLVESGGGLVQAGGSLRLSCAASGSTFGYYAMGWYRQAPGKERELVAAISRSGTRTYYADSVKGRFTISRDNAKYTVYLQMNSLKPEDTAVYYCAVKGPARGYDYWGQGTQVTVSS | high polyreactivity |
| QVQLVESGGGLVQAGGSLRLSCAASGRIFVNYAMGWYRQAPVKERELVATITWSGGSTFYADSVKGRFTISRDNAKNTVYLQMNSLKPEDTAVYYCAQRGYVRSGLGRPYADDYWGQGTQLTVSS | low polyreactivity |
| QVQLVESCGGLVQAGGSLRLSCAASGSTFVVNAMGGYRQAPGKERELVADISFTGDSTFYADSVKGRFTISRDNAKNTVYLEMNSLKPDDTAVYYCAADFRRVFSKYSYYLYFDFDYWGQGTQVTVSS | low polyreactivity |
| QVQLVESGGGLVQAGGILRLSCAASGSTFQSNAMGWYRQAPGKERELVAAISSSAGTTFYADSVKGRFTISRDNAKNTVYLQMNSLKPEDTAVYYCAKKDFYFAPSPGYYRSRDYWGQGTQVTVSS | low polyreactivity |
| QVQLVESGGGLVQAGGSLRLSCAASGSIFIWNAMGWYRQAPGKERELVAAISFSGGSTYYADSVKGRFTISRDNAKNTVYLQMNSLKPEDTAVYYCAADSYSGRYYWWEYDYWGQGTQVTVSS | low polyreactivity |
| QVQLVESGGGLVQAGGSLRLRCAASGHIFGRYAMGWYRQAPGKERELVAAFTSGGTTYYADSVKGRFTISRDNAKNTVYLQMNSLKPEDTAVYYCAAKFQLKRYSSPFIWYDSWGQGTQVTVSS | high polyreactivity |
| PVQLVESGGGLGQAGGSLRLSCAASGSTFLYSAMGWYRPAPGKERELVAGISASGGSSYYADSVKGRFTISRDYAKNTVYLQMNSLKPEDTAVYYCNATRVVIRHSYDYWGQGTQVTVSS | high polyreactivity |
| QVHLVESGGGLVQAGGSLRLSCAASGRIFAGYGMGWYRQAPGKERELVAAISSGGSTYYADSVKGRFTISRDNAKNPVYLQINSLKPEDTAVYYCAADTYTYYDYMARYYYWGQGTQVTVSS | low polyreactivity |
| QVQLVESGGGLFQAGGSLSLSCAATGIIFRSYAMGWYRQAPGKEREMVAAITRSGGSTYADSVKGRFTISRDNAKNTVDLQMNSLKPEDTAVYYCAADRYSGWVYRRDYWGQGTQVTVSS | low polyreactivity |
| QVQLVESGGGLVQAGGSLRLSCAASGSTLGAYAMGWYRQAPGKERELVAAISRSGGNTYYADSVKGRFTISRDNAKNTVYLQMNSLKPEDTAVYYCAAVRLYRYDYWGQGTQVTVSS | low polyreactivity |
| QVQLVESGGGLVQAGGSLRLSCDASGSILVAYAIGWYRQAPGKEREFVAAISSVGNTYYADSVKGRFTISRDNAKNTVYLQMNSLKPEDTAVYYCNAVYRVWYAEWSTVGSPHDYWGQGTQVTVSS | low polyreactivity |
| QVQLVESGGGLVQAGGSLRLSCAASGRIFSLNAMGWYRQAPGKERELVAGIRKRGGSTYYADSVKGRFTISRDNAKNTVYLQMNSLKPEDTAVYYCAARFYYGPGGYTMYYWGQGTQVTVSS | high polyreactivity |
| QVQLVESGGGLVQAGGSLRLSCAASGLTFAFNVMGWYRQAPGKERELVAAISASGASTYYADSVKGRFTISRDTAKNTVYLQMNSLKPEDTAVYYCAALGYCFSYRYDYWGQGTQVTVSS | high polyreactivity |
